{
  "source": "patent EP4725965A1",
  "about": "(Sunshine Guojian Pharmaceutical (Shanghai) Co., Ltd., dated 2026)",
  "molecules": {"B1": {"name": "23C10A6B5 (antibody, V domains shown)", "VH": "QVQLQQPGADLVKPGASVMMSCKASGYTFTSYIIHWVKQTPGQGLEWIGTIYPGNGDTSYNQKFKGKATLTADKSSSTAYMQLSSLTSEDSAVYYCARMGDNEYFDYWGQGTTLTVSS", "VL": "DIQMTQSPASLSASVGETVTITCRASGNIHNYLAWYQQKQGKSPQLLVYDAETLADGVPSRFSGSGSGTQYSLNINSLQPEDFGSFYCQHFWSTPYTFGGGTKLEIK", "notes": "Murine monoclonal antibody from hybridoma; also called hybridoma clone 23C10A6B5"}, "B2": {"name": "humanized antibody 230 (antibody, V domains shown)", "VH": "QVQLVQSGAEVKKPGASVKVSCKASGYTFTSYIIHWVRQAPGQGLEWMGTIYPGNGDTSYNQKFKGRVTMTRDTSTSTVYMELSSLRSEDTAVYYCARMGDNEYFDYWGQGTLVTVSS", "VL": "DIQMTQSPSSLSASVGDRVTITCRASGNIHNYLAWYQQKPGKAPKLLLYDAETLADGVPSRFSGSGSGTDYTLTISSLQPEDFATYYCQHFWSTPYTFGGGTKVEIK", "notes": "Human IgG1 constant region and human kappa chain constant region; also called 230 antibody; parental monoclonal antibody 230"}, "B3": {"name": "230-I33L (antibody, V domains shown)", "VH": "B2 VH with I33L", "VL": "B2 VL", "notes": "Single-point mutant of humanized antibody 230 (human IgG1/kappa)"}, "B4": {"name": "230-N55A (antibody, V domains shown)", "VH": "B2 VH with N55A", "VL": "B2 VL", "notes": "as for B3"}, "B5": {"name": "230-N55G (antibody, V domains shown)", "VH": "B2 VH with N55G", "VL": "B2 VL", "notes": "as for B3"}, "B6": {"name": "230-N55R (antibody, V domains shown)", "VH": "B2 VH with N55R", "VL": "B2 VL", "notes": "as for B3"}, "B7": {"name": "230-N55S (antibody, V domains shown)", "VH": "B2 VH with N55S", "VL": "B2 VL", "notes": "as for B3"}, "B8": {"name": "230IL-DE (antibody, V domains shown)", "VH": "B2 VH with I33L", "VL": "B2 VL with D56E", "notes": "Linked to the constant region of the IgG1 subtype"}, "B9": {"name": "230IL-DI (antibody, V domains shown)", "VH": "B2 VH with I33L", "VL": "B2 VL with D56I", "notes": "as for B8"}, "B10": {"name": "230IL-NG-DI (antibody, V domains shown)", "VH": "B2 VH with I33L, N55G", "VL": "B2 VL with D56I", "notes": "as for B8"}, "B11": {"name": "230IL-NR-DE (antibody, V domains shown)", "VH": "B2 VH with I33L, N55R", "VL": "B2 VL with D56E", "notes": "as for B8"}, "B12": {"name": "230IL-NR-DI (antibody, V domains shown)", "VH": "B2 VH with I33L, N55R", "VL": "B2 VL with D56I", "notes": "as for B8"}, "B13": {"name": "230NG-DI (antibody, V domains shown)", "VH": "B2 VH with N55G", "VL": "B2 VL with D56I", "notes": "as for B8"}, "B14": {"name": "230NR-DE (antibody, V domains shown)", "VH": "B2 VH with N55R", "VL": "B2 VL with D56E", "notes": "as for B8"}, "B15": {"name": "230NR-DI (antibody, V domains shown)", "VH": "B2 VH with N55R", "VL": "B2 VL with D56I", "notes": "as for B8"}, "B16": {"name": "antibody 230 mutant with light chain CDR2 DAETLAD changed to DAETLAE (antibody, V domains shown)", "VH": "B2 VH", "VL": "B2 VL with D56E", "notes": "Single-point mutant of humanized antibody 230; also called 230 antibody-DE"}, "B17": {"name": "antibody 230 mutant with light chain CDR2 DAETLAD changed to DAETLAI (antibody, V domains shown)", "VH": "B2 VH", "VL": "B2 VL with D56I", "notes": "Single-point mutant of humanized antibody 230; also called 230 antibody-DI"}, "B18": {"name": "antibody 237011 (antibody, human IgG1, V domains shown)", "VH": "B2 VH with I33L, N55G", "VL": "B2 VL with D56E"}, "B19": {"name": "antibody 2391 (antibody, human IgG1, V domains shown)", "VH": "B2 VH with N55G", "VL": "B2 VL with D56E"}},
  "key": {"human BDCA2-Fc protein": {"target": "T1, human BDCA2-Fc protein (human, UniProt Q8WTT0 45-213)", "T1 sequence": "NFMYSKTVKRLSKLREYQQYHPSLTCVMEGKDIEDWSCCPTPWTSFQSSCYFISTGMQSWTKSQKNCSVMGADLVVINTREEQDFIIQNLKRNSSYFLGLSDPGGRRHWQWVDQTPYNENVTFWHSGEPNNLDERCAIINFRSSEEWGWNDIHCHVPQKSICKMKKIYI", "assay": "ELISA, BDCA2-Fc coated at 1 ug/mL"}, "[1]": {"target": "human BDCA2 on cells (293FT-BDCA2 stable transfectant) (human) (UniProt Q8WTT0)", "assay": "flow cytometry (FACS) on 293FT-BDCA2 cells"}, "[2]": {"target": "human BDCA2 on cells (293FT-BDCA2 stable transfectant) (human) (UniProt Q8WTT0)", "assay": "flow cytometry (FACS) on 293FT-BDCA2 cells", "remark": "listed apart in the source"}, "human BDCA2-his protein [3]": {"target": "T2, human BDCA2-his protein (human, UniProt Q8WTT0 45-213)", "T2 construct": "also called BDCA2-his antigen protein", "T2 sequence": "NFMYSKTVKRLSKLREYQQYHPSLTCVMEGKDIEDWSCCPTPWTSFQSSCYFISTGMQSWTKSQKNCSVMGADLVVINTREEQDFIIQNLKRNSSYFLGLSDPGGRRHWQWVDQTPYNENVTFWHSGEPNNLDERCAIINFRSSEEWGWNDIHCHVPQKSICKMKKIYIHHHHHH", "assay": "SPR, Biacore 8K, antibody captured on Protein A chip, BDCA2-his as analyte"}, "[4]": {"target": "T3, human BDCA2 on cells (293FT-BDCA2 stable transfectant) (human, UniProt Q8WTT0 1-213)", "T3 construct": "whole, on cells; Also used here as the target for the PBMC assays, where native BDCA2 stands on pDCs; also called CLEC4C", "T3 sequence (looked up)": "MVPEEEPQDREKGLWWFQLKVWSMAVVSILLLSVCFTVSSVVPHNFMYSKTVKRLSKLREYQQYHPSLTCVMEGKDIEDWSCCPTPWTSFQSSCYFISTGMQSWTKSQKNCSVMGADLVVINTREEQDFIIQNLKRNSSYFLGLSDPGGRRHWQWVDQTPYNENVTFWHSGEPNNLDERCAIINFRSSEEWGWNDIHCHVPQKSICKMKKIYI", "assay": "flow cytometry (FACS) on 293FT-BDCA2 cells"}, "human BDCA2-his protein [5]": {"target": "T2, human BDCA2-his protein", "assay": "ELISA, BDCA2-his coated at 0.1 ug/mL, anti-human Fc HRP"}},
  "note": "Residue numbers refer to the chain shown, from its start. Where two headings read alike, the source gives them in different places.",
  "data": [
    {"molecule": "positive control antibody Litifilimab (BIIB059, 24F4A)", "values": [
      {"measurement": "EC50", "setting": "human BDCA2-Fc protein", "value": 0.0346, "unit": "µg/mL"},
      {"measurement": "EC50", "setting": "human BDCA2-Fc protein; record 2", "value": 0.0463, "unit": "µg/mL"},
      {"measurement": "EC50", "setting": "[1]", "value": 0.103, "unit": "µg/mL"},
      {"measurement": "EC50", "setting": "[2]", "value": 0.124, "unit": "µg/mL"},
      {"measurement": "Kd", "setting": "human BDCA2-his protein [3]", "value": 0.087, "unit": "nM"},
      {"measurement": "koff", "setting": "human BDCA2-his protein [3]", "value": 0.000121, "unit": "s⁻¹"},
      {"measurement": "kon", "setting": "human BDCA2-his protein [3]", "value": "1.39e+06", "unit": "M⁻¹ s⁻¹"}
    ]},
    {"molecule": "B1", "values": [
      {"measurement": "EC50", "setting": "human BDCA2-Fc protein", "value": 0.0201, "unit": "µg/mL"},
      {"measurement": "EC50", "setting": "[4]", "value": 0.0835, "unit": "µg/mL"}
    ]},
    {"molecule": "B2", "values": [
      {"measurement": "Kd", "setting": "human BDCA2-his protein [3]", "value": 0.0768, "unit": "nM"},
      {"measurement": "koff", "setting": "human BDCA2-his protein [3]", "value": 0.00131, "unit": "s⁻¹"},
      {"measurement": "kon", "setting": "human BDCA2-his protein [3]", "value": "1.7e+07", "unit": "M⁻¹ s⁻¹"}
    ]},
    {"molecule": "B3", "values": [
      {"measurement": "binding result", "setting": "human BDCA2-his protein [5]", "value": "binds"}
    ]},
    {"molecule": "B4", "values": [
      {"measurement": "binding result", "setting": "human BDCA2-his protein [5]", "value": "binds"}
    ]},
    {"molecule": "B5", "values": [
      {"measurement": "binding result", "setting": "human BDCA2-his protein [5]", "value": "binds"}
    ]},
    {"molecule": "B6", "values": [
      {"measurement": "binding result", "setting": "human BDCA2-his protein [5]", "value": "binds"}
    ]},
    {"molecule": "B7", "values": [
      {"measurement": "binding result", "setting": "human BDCA2-his protein [5]", "value": "binds"}
    ]},
    {"molecule": "B8", "values": [
      {"measurement": "binding result", "setting": "human BDCA2-his protein [5]", "value": "binds"}
    ]},
    {"molecule": "B9", "values": [
      {"measurement": "binding result", "setting": "human BDCA2-his protein [5]", "value": "binds"}
    ]},
    {"molecule": "B10", "values": [
      {"measurement": "binding result", "setting": "human BDCA2-his protein [5]", "value": "binds"}
    ]},
    {"molecule": "B11", "values": [
      {"measurement": "binding result", "setting": "human BDCA2-his protein [5]", "value": "binds"}
    ]},
    {"molecule": "B12", "values": [
      {"measurement": "binding result", "setting": "human BDCA2-his protein [5]", "value": "binds"}
    ]},
    {"molecule": "B13", "values": [
      {"measurement": "binding result", "setting": "human BDCA2-his protein [5]", "value": "binds"}
    ]},
    {"molecule": "B14", "values": [
      {"measurement": "binding result", "setting": "human BDCA2-his protein [5]", "value": "binds"}
    ]},
    {"molecule": "B15", "values": [
      {"measurement": "binding result", "setting": "human BDCA2-his protein [5]", "value": "binds"}
    ]},
    {"molecule": "B16", "values": [
      {"measurement": "binding result", "setting": "human BDCA2-his protein [5]", "value": "binds"}
    ]},
    {"molecule": "B17", "values": [
      {"measurement": "binding result", "setting": "human BDCA2-his protein [5]", "value": "binds"}
    ]},
    {"molecule": "B18", "values": [
      {"measurement": "Kd", "setting": "human BDCA2-his protein [3]", "value": 0.0259, "unit": "nM"},
      {"measurement": "koff", "setting": "human BDCA2-his protein [3]", "value": 0.000652, "unit": "s⁻¹"},
      {"measurement": "kon", "setting": "human BDCA2-his protein [3]", "value": "2.52e+07", "unit": "M⁻¹ s⁻¹"}
    ]},
    {"molecule": "B19", "values": [
      {"measurement": "Kd", "setting": "human BDCA2-his protein [3]", "value": 0.0357, "unit": "nM"},
      {"measurement": "koff", "setting": "human BDCA2-his protein [3]", "value": 0.000874, "unit": "s⁻¹"},
      {"measurement": "kon", "setting": "human BDCA2-his protein [3]", "value": "2.44e+07", "unit": "M⁻¹ s⁻¹"}
    ]}
  ]
}
